The values below come from patent EP4631972A1, “SITE-SPECIFIC COUPLED PEGYLATED INTERLEUKIN-2 MUTANT WITH RECEPTOR AFFINITY PREFERENCE AND USE THEREOF” (priority 2022, dated 2024).

T1: IL-2Rαβγ triple receptor (UniProt P01589 22-272; P14784 27-551; P31785 23-369)
T1 sequence (looked up) 1: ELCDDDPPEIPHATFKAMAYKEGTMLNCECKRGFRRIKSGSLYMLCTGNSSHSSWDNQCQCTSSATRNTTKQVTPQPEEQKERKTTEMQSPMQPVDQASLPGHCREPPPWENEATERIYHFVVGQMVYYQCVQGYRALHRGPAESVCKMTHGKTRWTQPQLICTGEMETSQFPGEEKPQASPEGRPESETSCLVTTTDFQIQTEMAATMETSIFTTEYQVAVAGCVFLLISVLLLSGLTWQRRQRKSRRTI
T1 sequence (looked up) 2: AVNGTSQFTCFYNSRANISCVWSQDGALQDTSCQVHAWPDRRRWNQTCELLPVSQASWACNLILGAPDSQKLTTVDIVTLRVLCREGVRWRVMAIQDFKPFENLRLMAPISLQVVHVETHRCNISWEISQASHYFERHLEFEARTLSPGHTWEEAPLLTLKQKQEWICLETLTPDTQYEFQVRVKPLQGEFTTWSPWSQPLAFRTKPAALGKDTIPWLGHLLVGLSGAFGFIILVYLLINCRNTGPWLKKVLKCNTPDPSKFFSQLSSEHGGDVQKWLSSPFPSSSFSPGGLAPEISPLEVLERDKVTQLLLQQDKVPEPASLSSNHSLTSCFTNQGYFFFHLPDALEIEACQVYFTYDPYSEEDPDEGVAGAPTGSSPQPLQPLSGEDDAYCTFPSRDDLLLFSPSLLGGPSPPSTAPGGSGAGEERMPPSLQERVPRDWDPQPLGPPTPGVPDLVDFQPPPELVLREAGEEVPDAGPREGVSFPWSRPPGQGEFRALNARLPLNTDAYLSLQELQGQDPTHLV
T1 sequence (looked up) 3: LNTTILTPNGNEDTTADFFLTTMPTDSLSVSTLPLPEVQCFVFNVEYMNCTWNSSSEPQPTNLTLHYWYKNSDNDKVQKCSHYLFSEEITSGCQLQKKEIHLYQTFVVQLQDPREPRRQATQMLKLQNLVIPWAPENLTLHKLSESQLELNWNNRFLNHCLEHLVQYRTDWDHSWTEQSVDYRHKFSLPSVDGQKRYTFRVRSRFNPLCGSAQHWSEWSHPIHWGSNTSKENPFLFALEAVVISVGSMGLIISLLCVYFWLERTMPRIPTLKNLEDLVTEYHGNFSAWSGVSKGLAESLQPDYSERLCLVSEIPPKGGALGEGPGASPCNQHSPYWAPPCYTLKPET

T2: IL-2βγ dual receptor (Homo sapiens, UniProt P14784+P31785)
T2 construct: Uniprot P14784 1Met-551Val was constructed into plasmid pcDNA3.1(+); Uniprot P31785 1Met-551Thr was constructed into plasmid pcDNA3.1/zeo; expressed in transfected cells; host or cells: 293EC18 cells, transient co-transfection with pCMV/JAK3 and PGL4.52/STAT5RE
T2 sequence (P14784 27-551): T1 sequence (looked up) 2
T2 sequence (P31785 23-369): T1 sequence (looked up) 3

B1: 60k-1PEG-IL2-N88R-N33pAcF (ligand)
chain: APTSSSTKKTQLQLEHLLLDLQMILNGINNYK[Phe(4-Ac)](PEG60k)PKLTRMLTFKFYMPKKATELKHLQCLEEELKPLEEVLNLAQSKNFHLRPRDLISRINVIVLELKGSETTFMCEYADETATIVEFLNRWITFSQSIISTLT
B2: 40k-1PEG-IL2-N88R-N77pAcF (ligand)
chain: APTSSSTKKTQLQLEHLLLDLQMILNGINNYKNPKLTRMLTFKFYMPKKATELKHLQCLEEELKPLEEVLNLAQSK[Phe(4-Ac)](PEG‑hydroxylamine 40 kDa)FHLRPRDLISRINVIVLELKGSETTFMCEYADETATIVEFLNRWITFSQSIISTLT
modifications: not fully specified
B3: 20k-1PEG-IL2-N88R-N33pAcF (ligand)
chain: APTSSSTKKTQLQLEHLLLDLQMILNGINNYK[Phe(4-Ac)](PEG‑hydroxylamine 20 kDa)PKLTRMLTFKFYMPKKATELKHLQCLEEELKPLEEVLNLAQSKNFHLRPRDLISRINVIVLELKGSETTFMCEYADETATIVEFLNRWITFSQSIISTLT
modifications: not fully specified
B4: 40k-1PEG-IL2-N88R-N33pAcF (ligand)
chain: APTSSSTKKTQLQLEHLLLDLQMILNGINNYK[Phe(4-Ac)](PEG‑hydroxylamine 40 kDa)PKLTRMLTFKFYMPKKATELKHLQCLEEELKPLEEVLNLAQSKNFHLRPRDLISRINVIVLELKGSETTFMCEYADETATIVEFLNRWITFSQSIISTLT
modifications: not fully specified
B5: 60k-1PEG-IL2-N88R-N77pAcF (ligand)
chain: APTSSSTKKTQLQLEHLLLDLQMILNGINNYKNPKLTRMLTFKFYMPKKATELKHLQCLEEELKPLEEVLNLAQSK[Phe(4-Ac)](PEG60k)FHLRPRDLISRINVIVLELKGSETTFMCEYADETATIVEFLNRWITFSQSIISTLT
B6: 20k-1PEG-IL2-N88R-N77pAcF (ligand)
chain: APTSSSTKKTQLQLEHLLLDLQMILNGINNYKNPKLTRMLTFKFYMPKKATELKHLQCLEEELKPLEEVLNLAQSK[Phe(4-Ac)](PEG‑hydroxylamine 20 kDa)FHLRPRDLISRINVIVLELKGSETTFMCEYADETATIVEFLNRWITFSQSIISTLT
modifications: not fully specified
B7: 40k-1PEG-IL2-N88R-N77Prk (ligand)
chain: APTSSSTKKTQLQLEHLLLDLQMILNGINNYKNPKLTRMLTFKFYMPKKATELKHLQCLEEELKPLEEVLNLAQSK[Prk](PEG‑azide 40 kDa)FHLRPRDLISRINVIVLELKGSETTFMCEYADETATIVEFLNRWITFSQSIISTLT
B8: 60k-1PEG-IL2-N88R-N33Prk (ligand)
chain: APTSSSTKKTQLQLEHLLLDLQMILNGINNYK[Prk](PEG 60 kDa)PKLTRMLTFKFYMPKKATELKHLQCLEEELKPLEEVLNLAQSKNFHLRPRDLISRINVIVLELKGSETTFMCEYADETATIVEFLNRWITFSQSIISTLT
B9: 20k-1PEG-IL2-N88R-N33Prk (ligand)
chain: APTSSSTKKTQLQLEHLLLDLQMILNGINNYK[Prk](PEG‑azide 20 kDa)PKLTRMLTFKFYMPKKATELKHLQCLEEELKPLEEVLNLAQSKNFHLRPRDLISRINVIVLELKGSETTFMCEYADETATIVEFLNRWITFSQSIISTLT
B10: 60k-1PEG-IL2-N88R-N77Prk (ligand)
chain: APTSSSTKKTQLQLEHLLLDLQMILNGINNYKNPKLTRMLTFKFYMPKKATELKHLQCLEEELKPLEEVLNLAQSK[Prk](PEG 60 kDa)FHLRPRDLISRINVIVLELKGSETTFMCEYADETATIVEFLNRWITFSQSIISTLT
B11: 20k-1PEG-IL2-N88R-N77Prk (ligand)
chain: APTSSSTKKTQLQLEHLLLDLQMILNGINNYKNPKLTRMLTFKFYMPKKATELKHLQCLEEELKPLEEVLNLAQSK[Prk](PEG‑azide 20 kDa)FHLRPRDLISRINVIVLELKGSETTFMCEYADETATIVEFLNRWITFSQSIISTLT
B12: 40k-1PEG-IL2-N88R-N33Prk (ligand)
chain: APTSSSTKKTQLQLEHLLLDLQMILNGINNYK[Prk](PEG‑azide 40 kDa)PKLTRMLTFKFYMPKKATELKHLQCLEEELKPLEEVLNLAQSKNFHLRPRDLISRINVIVLELKGSETTFMCEYADETATIVEFLNRWITFSQSIISTLT
B13: 80k-1PEG-IL2-N88R-S75C: IL-2 mutant N88R, S75C with one 80k PEG conjugated to cysteine 75 (conjugate)
chain: APTSSSTKKTQLQLEHLLLDLQMILNGINNYKNPKLTRMLTFKFYMPKKATELKHLQCLEEELKPLEEVLNLAQC(PEG 80 kDa)KNFHLRPRDLISRINVIVLELKGSETTFMCEYADETATIVEFLNRWITFSQSIISTLT

Numbered stars: 1 amine (or outer) side, 2 acyl side, 3 side chain; on linkers, the order of the positions; unused ones are H or OH. Square brackets hold non-standard residues; d marks the D form. Prk = N-ε-propargyloxycarbonyl-L-lysine, C#CCOC(=O)NCCCC[C@H](N[*:1])C(=O)[*:2]; PEG60k = one 60 kD PEG attached to the residue; Phe(4-Ac) = CC(=O)c1ccc(C[C@H](N)C(=O)O)cc1

The first assay has as its target T1, IL-2Rαβγ triple receptor. Kind of assay: cell-based or functional assay.
Settings: not given
As to B1, the “Activation of IL-2αβγ triple receptor EC50 (STAT5 luciferase reporter gene assay)” value stood at 9.21 nM.

For B2, the “Activation of IL-2αβγ triple receptor EC50 (STAT5 luciferase reporter gene assay)” value came out at 1.92 nM.

On to B3, for which the “Activation of IL-2αβγ triple receptor EC50 (STAT5 luciferase reporter gene assay)” value amounted to 0.319 nM.

As for B4, the “Activation of IL-2αβγ triple receptor EC50 (STAT5 luciferase reporter gene assay)” value came out at 3.69 nM.

Regarding B5, the “Activation of IL-2αβγ triple receptor EC50 (STAT5 luciferase reporter gene assay)” value worked out at 5.12 nM.

Consider B6, for which the “Activation of IL-2αβγ triple receptor EC50 (STAT5 luciferase reporter gene assay)” value worked out at 0.5 nM.

For another assay, the target named is T1, IL-2Rαβγ triple receptor. The assay can be described thus: cell-based or functional assay.
Settings: not given
This is another data set of the same source.
For B7, the “Activation of IL-2αβγ receptor EC50 (STAT5 luciferase reporter gene assay)” value (shortened to “Activation of IL-2αβγ receptor EC50”) was 0.517 nM.

B8: the “Activation of IL-2αβγ receptor EC50” value was 0.368 nM.

In the case of B9, the “Activation of IL-2αβγ receptor EC50” value amounted to 0.323 nM.

As to B10, the “Activation of IL-2αβγ receptor EC50” value is 0.417 nM.

Take B11: the “Activation of IL-2αβγ receptor EC50” value came out at 0.361 nM.

Regarding B12, the “Activation of IL-2αβγ receptor EC50” value was found to be 0.443 nM.

The target of a further assay is T2, IL-2βγ dual receptor. Kind of assay: STAT5 reporter gene assay, activation of IL-2βγ dual receptor in 293EC18/βγ/JAK3/STAT5 cells. It is filed as cell-based. To be noted: Figure 1, concentration of 65.2 nM. As for the experimental part: Since the binding of IL-2 to the β and γ subunits of its receptor induces STAT5 phosphorylation, which subsequently leads to dimerization and translocation into the nucleus to promote target gene transcription, this example evaluates the ability of the mutant IL-2 polypeptides to induce signaling through the IL-2 receptor by measuring STAT5 phosphorylation.
Adherent 293EC18 cells were cultured to about 90% confluence using conventional methods. After trypsin digestion, the cells were resuspended in cell culture medium to 4×10^5 cells/ml and 50 µl/well were added to two 96-well cell culture plates. After incubation at 37°C for 48 h, the supernatant was aspirated and fresh culture medium was added. According to the manufacturer's method, four plasmids, pcDNA3.1(+)/CD122 (constructed by Nanjing Novoacine Biotechnology Co., Ltd, Uniprot P14784 1Met-551Val was constructed into plasmid pcDNA3.1(+)), pcDNA3.1/puro/CD132 (constructed by Nanjing Novoacine Biotechnology Co., Ltd, Uniprot P31785 1Met-551Thr was constructed into plasmid pcDNA3.1/zeo), pCMV/JAK3 (Sino Biological), and PGL4.52/STAT5RE (Promega) were transiently transfected into 293EC18 cells using a cationic transfection reagent (ExFect Transfection Reagent, Vazyme). The obtained cells were named 293EC18/βγ/JAK3/STAT5 cells. Alternatively, five plasmids, pcDNA3.1/zeo/CD25 (constructed by Nanjing Novoacine Biotechnology Co., Ltd, Uniprot P01589 1Met-551Ile constructed into plasmid pcDNA3.1/zeo), pcDNA3.1(+)/CD122 (constructed by Nanjing Novoacine Biotechnology Co., Ltd, Uniprot P14784 1Met-551Val constructed into plasmid pcDNA3.1(+)), pcDNA3.1/puro/CD132 (constructed by Nanjing Novoacine Biotechnology Co., Ltd, UniprotP31785 1Met-551Thr constructed into plasmid pcDNA3.1/zeo), pCMV/JAK3 (Sino Biological), and PGL4.52/STAT5RE (Promega) were transiently transferred into 293EC18 cells, and the obtained cells were named 293EC18/αβγ/JAK3/STAT5 cells. The transfected cells were incubated at 37°C and 5% CO2 for another 6 h.
Each IL2 mutant was diluted 4-fold in a gradient manner using PBS buffer, with a total of 11 dilutions and a starting concentration of 65.2 nM. In the above cell culture plates, 50 µl/well of each of the serially diluted IL2 mutant samples was added in duplicate. Then, the cell culture plate was placed in an incubator at 37°C and 5% CO2 for overnight culture. The cell culture plates were kept at room temperature for 20 ± 5 minutes to equilibrate the plates to room temperature. Bio-Lite Luciferase Assay System reagents that have been mixed and equilibrated to room temperature were added to the cell culture plates to be tested at 100 µl/well, placed on a microplate shaker at 450 rpm to mix for 2 minutes, then allowed to stand at room temperature for 3 minutes, and the chemiluminescence value was detected with an enzyme plate reader.
The logarithm of the final concentration of each IL-2 mutant sample was used as the X-axis, and the chemiluminescence detection results were used as the Y-axis for plotting. Data were analyzed using the four-parameter logistic regression model in GraphPad Prism 9. Table 2 EC50 values for the activation of the IL-2αβγ triple receptor by PEG-IL-2 mutants as determined by a reporter gene assay.
According to the method of Example 3, each polyethylene glycol-modified mutant obtained in this example was assessed for the binding preference to the IL2 receptors by a reporter assay. Table 4 EC50 values for the activation of the IL-2αβγ triple receptor by PEG-IL-2 mutants as determined by a reporter gene assay.
Referring to Example 3, the phosphorylation of STAT5 was used to evaluate the ability of the PEG-modified IL-2 mutants having a non-natural amino acid mutation prepared in Example 14 to induce signal transduction via the IL-2 receptor. […]
In general terms: A reporter such as luciferase makes a cellular process visible.
On to B13, for which the “activation effect on the IL-2Rβγ dual receptor compared with control IL-2 N88R” value is recorded as “lower activation effects”.

The assay is the same for the next values; noted with them: Figure 2, all concentrations.
In the case of B13, the “activation effect on / affinity to IL-2Rβγ dual receptor compared with control IL-2 N88R” value is recorded as “further reduced the affinity to IL-2Rβγ”.
